Assay results published in patent US12018084B2, “Anti-CXCR2 antibodies and uses thereof” (Cephalon LLC, priority 2018, dated 2024).
Where a chain is given by its changes, count along the chain named. Values joined by “and” are separate entries in the source; they are usually repeats but may differ in a detail not shown here. Equal values may be shown once.

T1: Murine CXCR2 (Mus musculus, UniProt P35343)
T1 construct: expressed in transfected cells
T1 sequence (P35343 1-359): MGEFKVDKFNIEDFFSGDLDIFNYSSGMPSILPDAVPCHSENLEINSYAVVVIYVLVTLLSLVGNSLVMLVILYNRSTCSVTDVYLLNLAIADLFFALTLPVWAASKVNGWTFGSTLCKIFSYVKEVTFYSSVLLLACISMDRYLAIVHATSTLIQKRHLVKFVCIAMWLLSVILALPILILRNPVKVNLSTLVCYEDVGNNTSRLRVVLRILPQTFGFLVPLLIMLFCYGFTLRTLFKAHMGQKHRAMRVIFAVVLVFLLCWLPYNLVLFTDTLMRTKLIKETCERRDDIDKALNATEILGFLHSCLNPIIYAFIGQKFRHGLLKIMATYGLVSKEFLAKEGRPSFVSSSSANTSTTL

T2: Human CXCR2 (Homo sapiens, UniProt P25025)
T2 sequence (P25025 1-360): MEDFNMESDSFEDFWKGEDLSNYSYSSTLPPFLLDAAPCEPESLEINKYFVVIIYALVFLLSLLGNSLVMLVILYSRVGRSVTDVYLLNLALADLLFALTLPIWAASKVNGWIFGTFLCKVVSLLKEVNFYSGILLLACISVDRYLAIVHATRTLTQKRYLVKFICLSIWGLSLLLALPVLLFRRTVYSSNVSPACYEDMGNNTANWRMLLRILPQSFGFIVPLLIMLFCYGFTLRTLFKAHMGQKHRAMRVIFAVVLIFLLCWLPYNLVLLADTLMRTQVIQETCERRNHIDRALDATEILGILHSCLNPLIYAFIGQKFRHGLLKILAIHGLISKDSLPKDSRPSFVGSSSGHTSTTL

B1: BKO-4A8: parental anti-CXCR2 antibody, VH SEQ ID NO: 17, VL SEQ ID NO: 18 (antibody, V domains shown)
VH: EVQLLESGGGLVQPGGSLRLSCAASGFTFSSSTMSWVRQAPGKGLEWVSAISGRGRNTYYADSVKGRFTISRDNSRNTLYLQMNSLRAEDTAVYYCAIQMGYWGQGILVTVSS
VL: QSALTQPPSASGSPGQSVTISCIGTSSDVGGYNYVSWYQQHPDKAPKLMIYEVNKRPSGVPDRFSGSKSGNTASLTVSGLQAEDEADYYCSSYAGNNNFGVFGGGTKLTVL
modifications: BKO_4A8_VH; BKO_4A8_VL
B2: 101c: VH SEQ ID NO: 108, VL SEQ ID NO: 110; renamed BKO-4A8-101c (antibody, V domains shown)
VH: B1 VH with M34Q, A40P, N57S, R76K, M100A
VL: B1 VL with D43G, N54S, N96S
modifications: 4A8 VH Variant 101 M34Q_A40P_N56S_R75K_M96A; 4A8 VL variant c D41G_N52S_N94S
notes: renamed BKO-4A8-101c

Columns and labels:
[1] = molecular target: T1, Murine CXCR2; test: cELISA of hybridoma supernatants on cells transfected with murine CXCR2; assay type: binding; settings: hybridoma supernatant; fluorescence units relative to positive control (100%)
[2] = molecular target: T2, Human CXCR2; test: Flow cytometry binding assay, Expi293F cells transiently transfected with human CXCR2; parameters: host or cells: Expi293F cells, vector pTT5
Description: For each 10 mL transfection, lipid-DNA complexes were prepared by diluting 10 μg of plasmid DNA in Opti-MEM™ I Reduced Serum Medium (Cat. no. 31985-062) to a total volume of 1.0 mL. 54 μL of ExpiFectamine™ 293 Reagent was diluted in Opti-MEM™ I medium to a total volume of 1.0 mL. Transfections were carried out according to manufacturer's instructions. The cells were incubated in a 37° C. incubator with a humidified atmosphere of 8% CO2 in air on an orbital shaker rotating at 200 rpm. Approximately 18-24 hours post-transfection, the cell viability was evaluated and transfected cells harvested for use.
(§1) Harvested cells were resuspended in FACS buffer (1×PBS+0.5% (w/v) bovine serum albumin (BSA)+2 mM EDTA pH 7.2). Approximately 2×10^5 cells were added per well in a 96-well round-bottomed plate. Cells were pelleted by centrifugation at 400 g for 5 mins at 4° C. and supernatants discarded. 25 μL of each test antibody or control antibody was added to the cells and incubated for 30 minutes at 4° C. Cells were washed twice in 100 μL FACS buffer followed by centrifugation at 400 g for 5 mins at 4° C.
(§2) For detection, 50 μL of secondary antibody (Table 2) was added to relevant samples. Commercially available antibodies that bound to transfected CXCR family members were used as positive controls to ensure that the cells were expressing the receptors. Cells were washed twice in 200 μL of FACS buffer followed by centrifugation at 400 g for 5 mins at 4° C. Before sample acquisition, cells were resuspended in 100 μL of FACS buffer. Samples were acquired using the high throughput sampler on a FACSCanto™ II cytometer (Beckton-Dickinson).
Binding of BKO-4A8 and variants thereof was detected by incubation of fluorochrome-conjugate anti-human IgG light chain lambda antibody. The binding activity of antibodies tested, quantified as mean fluorescent intensity, was independent of the antibody Fc region as illustrated in FIG. 9.

[3] = tested on: native cynomolgus CXCR2 expressed by cynomolgus neutrophils; test: Flow cytometry binding to cynomolgus blood neutrophils; parameters: species or system cynomolgus monkey; settings: FIG. 2, MFI
Description: Whole human buffy coat, PBMC enriched fractions prepared from human peripheral blood buffy coat or cynomolgus monkey whole blood was used for analysis of antibody binding activity by flow cytometry. Briefly, blood was untreated or diluted 1:1 in sterile filtered room temperature phosphate-buffered saline (PBS). 30 mL samples were layered over 15 mL Lymphoprep™ (Stem Cell Technologies, cat #07851). Peripheral blood mononuclear cells (PBMC) were enriched by room temperature centrifugation at 700 g for 30 minutes with no braking. The PBMC layer was isolated and cells washed in PBS containing 2 mM EDTA with low speed centrifugation at 200 g, to remove platelet contamination. Whole blood or PBMC enriched cell fractions were resuspended in red blood cell lysing solution (BioLegend, 420301). Viable cell counts were determined and cells resuspended at 1×10^7 cells per mL in FACS buffer (1×PBS+0.5% (w/v) BSA+2 mM EDTA pH 7.2).
Flow cytometry binding assays using whole blood or PBMC enriched preparations: Binding assays to detect CXCR2 on blood neutrophil populations using test antibodies were performed essentially as described for assays using transiently transfected Expi293F™ cells. Binding of antibodies to human CXCR2 on the surface of the neutrophils was measured using anti-CXCR2 antibody directly conjugated to the fluorophore allophycocyanin (APC). Matched isotype control antibodies were included for comparison. Cells were incubated with lineage specific antibodies and 2 μg/ml of APC conjugated anti-CXCR2 antibody or isotype control prepared in ice cold 3% BSA/PBS for a minimum of 30 minutes at 4° C. The commercial anti-CXCR2 antibody (clone 48331 (R&D Systems FAB331A)) was used as a positive control. […] The level of fluorescence on the cell surface was measured by flow cytometry. Using this method, test anti-CXCR2 antibodies were detected binding neutrophils from both human and cynomolgus monkey.

[4] = tested on: human CXCR family members (CXCR1, CXCR3, CXCR4, CXCR5, CXCR6, CXCR7); test: Flow cytometry binding to other human CXCR family members on transfected Expi293F cells; settings: FIG. 11
Description: as §1
as §2, with “(Beckton-Dickinson). […]” for “(Beckton-Dickinson).”
The specificity of the anti-CXCR2 antibody BKO-4A8-101c was tested by assessing binding activity on Expi293F™ cells transiently transfected to express closely related human CXCR family members as illustrated in FIG. 11. Binding of BKO-4A8-101c was detected by incubation of fluorochrome-conjugate anti-human IgG antibody.

native cynomolgus CXCR2 expressed by cynomolgus neutrophils, sequence (as listed by the source): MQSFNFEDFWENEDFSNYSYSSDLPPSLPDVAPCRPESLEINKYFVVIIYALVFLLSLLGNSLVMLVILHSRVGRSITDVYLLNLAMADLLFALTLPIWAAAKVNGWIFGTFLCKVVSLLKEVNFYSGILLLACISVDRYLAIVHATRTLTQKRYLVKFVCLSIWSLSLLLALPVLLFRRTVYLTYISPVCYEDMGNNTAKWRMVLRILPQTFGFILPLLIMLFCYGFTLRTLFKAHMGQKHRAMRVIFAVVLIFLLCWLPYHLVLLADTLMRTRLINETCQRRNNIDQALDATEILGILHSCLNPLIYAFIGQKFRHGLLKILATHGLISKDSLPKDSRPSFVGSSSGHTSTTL

Molecule | Murine CXCR2 % Positive [1] | Max binding (MFI) ([2]; combinatorial variants with light chain c, listed as 4A8 Control) | EC50 ([2]; combinatorial variants, Table 11) | binding to native cynomolgus CXCR2 on cynomolgus PBMCs / neutrophils [3] | specificity of binding among human CXCR family members [4]
B1 | 5% | 62074 MFI and 82797 MFI | 0.4 nM | high binding activity | 
B2 |  |  |  |  | strongly and exclusively bind human CXCR2
